Assay results taken from US20240116985A1 (published 2024).
Starred links: 1 amine or outer side, 2 acyl side, 3 side chain; linkers in the order of their positions; H or OH if unused. Positions of bridges follow the written chain, without caps; N, C: chain ends. Non-standard residues stand in square brackets, D forms with d. Primed or numbered codes have the meaning given here. PyrS2″ = (S)-3-amino-1-((pent-4-en-1-yloxy)carbonyl)pyrrolidine-3-carboxylic acid (stapling residue), C=CCCCOC(=O)N1CC[C@@](N[*:1])(C(=O)[*:2])C1; B5(16) = 2-amino-2-(pent-4-en-1-yl)hept-6-enoic acid = 2,2-bis(4-pentenyl)glycine (stitching residue), C=CCCCC(CCCC=C)(N[*:1])C(=O)[*:2]; B5(4) = 2,2-bis(4-pentenyl)glycine = 2-amino-2-(pent-4-en-1-yl)hept-6-enoic acid (stitching residue), C=CCCCC(CCCC=C)(N[*:1])C(=O)[*:2]; TfeGA = (S)-2-amino-3-((carboxymethyl)(2,2,2-trifluoroethyl)amino)propanoic acid, O=C([C@H](CN(CC(=O)[*:3])CC(F)(F)F)N[*:1])[*:2]; B5(9) = 2-amino-2-(pent-4-en-1-yl)hept-6-enoic acid (2,2-bis(4-pentenyl)glycine), C=CCCCC(CCCC=C)(N[*:1])C(=O)[*:2]; Me2Asn = listed as N4-methyl-L-asparagine, CNC(=O)C[C@H](N[*:1])C(=O)[*:2]; Phe(3-COOH) = N[C@@H](Cc1cccc(C(=O)O)c1)C(=O)O; d(βAsp) = O=C(O)[C@@H](CC(=O)[*:2])N[*:1]; βAsp = O=C(O)[C@H](CC(=O)[*:2])N[*:1]; Bta = N[C@@H](Cc1csc2ccccc12)C(=O)O; αAllylPro = C=CC[C@@]1(C(=O)O)CCCN1; tBuAla = CC(C)(C)C[C@H](N)C(=O)O; 3Thi = N[C@@H](Cc1ccsc1)C(=O)O; S8 = C=CCCCCCC[C@](C)(N)C(=O)O; BnBoroleK = not defined here; PyrS2(4) = not defined here; TfeGA″ = not defined here; 34ClF = not defined here; Nle = CCCC[C@H](N)C(=O)O

T1: B-cat-Halo (beta-catenin HaloTag construct expressed in HEK293 cells) (UniProt P35222 1-781)
T1 sequence (looked up): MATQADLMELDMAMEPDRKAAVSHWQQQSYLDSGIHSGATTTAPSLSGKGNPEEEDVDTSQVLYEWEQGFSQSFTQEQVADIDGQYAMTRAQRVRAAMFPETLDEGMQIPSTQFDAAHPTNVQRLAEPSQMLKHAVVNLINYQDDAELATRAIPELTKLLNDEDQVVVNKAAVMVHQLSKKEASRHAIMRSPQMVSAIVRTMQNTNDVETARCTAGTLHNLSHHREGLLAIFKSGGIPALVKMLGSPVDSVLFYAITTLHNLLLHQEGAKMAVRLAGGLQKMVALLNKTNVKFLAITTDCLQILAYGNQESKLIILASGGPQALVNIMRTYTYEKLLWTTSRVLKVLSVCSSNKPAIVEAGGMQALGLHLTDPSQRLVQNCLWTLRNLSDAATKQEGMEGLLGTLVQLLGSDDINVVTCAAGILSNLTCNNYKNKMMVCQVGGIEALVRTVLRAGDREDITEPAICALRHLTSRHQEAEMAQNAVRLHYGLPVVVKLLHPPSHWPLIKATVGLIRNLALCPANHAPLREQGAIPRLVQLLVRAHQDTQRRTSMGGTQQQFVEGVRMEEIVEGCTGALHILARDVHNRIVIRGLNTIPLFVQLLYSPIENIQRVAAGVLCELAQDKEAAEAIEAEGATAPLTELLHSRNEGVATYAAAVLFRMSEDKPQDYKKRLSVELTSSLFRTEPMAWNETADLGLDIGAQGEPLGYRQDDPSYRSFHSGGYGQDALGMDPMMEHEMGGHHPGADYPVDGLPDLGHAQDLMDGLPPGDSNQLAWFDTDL

T2: full-length beta-Catenin (Uniprot ID P35222) (Homo sapiens (Human), UniProt P35222 1-781)
T2 construct: also called bCat; B-Catenin
T2 sequence: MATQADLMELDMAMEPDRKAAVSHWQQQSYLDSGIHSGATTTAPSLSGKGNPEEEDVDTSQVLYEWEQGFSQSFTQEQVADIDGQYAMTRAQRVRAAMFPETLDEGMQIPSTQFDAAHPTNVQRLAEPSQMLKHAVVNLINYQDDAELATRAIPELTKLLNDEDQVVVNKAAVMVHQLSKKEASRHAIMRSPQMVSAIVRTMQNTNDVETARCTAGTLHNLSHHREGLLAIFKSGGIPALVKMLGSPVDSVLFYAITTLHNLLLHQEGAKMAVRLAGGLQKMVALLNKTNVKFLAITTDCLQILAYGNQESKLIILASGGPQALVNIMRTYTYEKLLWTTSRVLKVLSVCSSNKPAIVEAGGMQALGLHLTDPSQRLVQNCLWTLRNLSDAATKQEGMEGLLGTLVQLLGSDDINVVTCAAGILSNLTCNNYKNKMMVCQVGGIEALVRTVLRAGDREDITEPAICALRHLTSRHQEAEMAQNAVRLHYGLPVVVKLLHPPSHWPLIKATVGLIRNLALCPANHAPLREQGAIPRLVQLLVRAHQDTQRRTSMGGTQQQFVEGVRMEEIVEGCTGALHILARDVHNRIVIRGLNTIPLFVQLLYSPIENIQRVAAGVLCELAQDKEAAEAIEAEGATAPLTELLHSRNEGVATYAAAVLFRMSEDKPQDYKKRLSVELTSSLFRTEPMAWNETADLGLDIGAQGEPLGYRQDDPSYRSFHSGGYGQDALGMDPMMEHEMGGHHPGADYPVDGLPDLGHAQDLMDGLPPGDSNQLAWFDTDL


Biological target: T1, B-cat-Halo (beta-catenin HaloTag …)
Experiment: cell-based or functional assay

Binder	NanoBRET Abs IC50
Ac-[αAllylPro]D[tBuAla][B5(4)]D[TfeGA]AAFL[PyrS2″][3Thi][Bta]Q-NH2 (staple 1-4, 4-11; not fully specified (residue 9); also: later-eluting HPLC isomer peak) [I-2185]	6.1 µM
Ac-[αAllylPro]D[tBuAla][B5(4)]D[Phe(3-COOH)]QAFL[PyrS2″][3Thi][Bta][tBuAla]-NH2 (staple 1-4, 4-11) [I-2192]	16.1 µM
Ac-[αAllylPro]D[tBuAla][B5(4)]D[Phe(3-COOH)][Me2Asn]AFL[PyrS2(4)][3Thi][Bta]A-NH2 (staple 1-4, 4-11; reading uncertain; also: printed as Ac-PL3-Asp-Npg-B5-Asp-3COOHF-Me2Asn-Ala-Phe-Leu-PyrS2-3Thi-BztA-Ala-NH2) [I-2188]	7.6 µM
Ac-[αAllylPro]D[tBuAla][B5(4)]DDAAFN[PyrS2″][3Thi][34ClF]Q-NH2 (staple 1-4, 4-11; reading uncertain; also: printed as Ac-PL3-Asp-Npg-B5-Asp-Asp-Ala-Ala-Phe-Asn-PyrS2-3Thi-34C1F-Gln-NH2) [I-2182]	11.1 µM
Ac-[αAllylPro]D[tBuAla][B5(4)]D[Phe(3-COOH)][Nle]AFL[PyrS2″][3Thi][Bta]V-NH2 (staple 1-4, 4-11) [I-2189]	33.4 µM
Ac-[αAllylPro]D[tBuAla][B5(4)]DDAAFL[PyrS2″][3Thi][34ClF]Q-NH2 (staple 1-4, 4-11; reading uncertain; also: printed as Ac-PL3-Asp-Npg-B5-Asp-Asp-Ala-Ala-Phe-Leu-PyrS2-3Thi-34C1F-Gln-NH2) [I-2183]	5 µM
Ac-[αAllylPro]D[tBuAla][B5(4)]D[Phe(3-COOH)][Me2Asn]AFL[PyrS2″][3Thi][Bta]V-NH2 (staple 1-4, 4-11) [I-2191]	29.5 µM
Ac-[αAllylPro]D[tBuAla][B5(4)]D[Phe(3-COOH)]SAFL[PyrS2(4)][3Thi][Bta]V-NH2 (staple 1-4, 4-11; reading uncertain; also: printed as Ac-PL3-Asp-Npg-B5-Asp-3COOHF-Ser-Ala-Phe-Leu-PyrS2-3Thi-BztA-Val-NH2) [I-2190]	33.4 µM
Ac-[αAllylPro]D[tBuAla][B5(4)]D[TfeGA″]AAFL[PyrS2(4)][3Thi][Bta][BnBoroleK]-NH2 (staple 1-4, 4-11; reading uncertain; also: later-eluting HPLC isomer peak) [I-2187]	10.8 µM

Biological target: T2, full-length beta-Catenin (Uniprot ID …)
Experiment: fluorescence polarization competition; full-length beta-catenin, competitor 5FAM-TCF4(10-53) probe
Procedure, shortened: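 Readings followed a light-protected 60-minute incubation at 20° C. Each read was done in duplicate. Curves were fit with a 1:1 binding model including hill slope, and stated concentrations are final.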

Binder	IC50
Ac-[αAllylPro]DI[B5(9)][βAsp]EAAFQ[S8]F[Bta]Q-NH2 (staple 1-4, 4-11, Stapled peptide) [I-673]	5 µM
Ac-[αAllylPro][d(βAsp)]I[B5(9)]DEAAFQ[S8]F[Bta]Q-NH2 (staple 1-4, 4-11, Stapled peptide) [I-668]	0.675 µM
XDIXDEALFQXFXQ (not fully specified; Ac-PL3-Asp-Ile-B5-Asp-Glu-Ala-Leu-Phe-Gln-S8-Phe-BztA-Gln-NH2; N-terminal acetyl, C-terminal amide; PL3(1), B5(4), S8(11) stapled by olefin metathesis (1-4 and 4-11); BztA at 13, Stapled peptide) [I-659]	0.43 µM
Ac-[αAllylPro]DI[B5(16)]DEWAFQ[S8]F[Bta]Q-NH2 (staple 1-4, 4-11, Stapled peptide) [I-655]	0.183 µM
Ac-[αAllylPro]DI[B5(9)]DEAWFQ[S8]F[Bta]Q-NH2 (staple 1-4, 4-11, Stapled peptide) [I-665]	0.923 µM
